The DeepSol protein solubility set

Experiment: soluble on expression in E. coli; label from the status in PepcDB or PDB records

Sequence	soluble on expression in E. coli
MWLYYLQVVMDMRVYVEGYGCVLNTADTEIIKNSLKKHGFEVVNNLEEADIAIINTCVVRLETENRMIYRINELKNLGKEVVVAGCLPKALKNKVKGFLHIYPREAHKAGEILKNYVEKHYRMPYIEEDINKTLYKKLDYLKPSLITPLPICEGCIGNCSYCIVKIARGGLISYPREKIVNKAKELINKGAKCLLITAQDTACYGFDIGDNLANLLNELTQIKGEFIMRVGMMHAKNAELILDELIEVYQNEKVGKFLHLPLQSGDDEILKRMKRGYTVDEFKDIVNEFRRKIKNLCFTTDIIVGFPGETEEQFQNTLEVLRELKPDYIHGAKYSQRKGTEAAKMKQIDTKIRKRRSEILDKLRRELSYLNNKKYIGKAMKVLVLDEGKGYTDNFKVVKFEGGEVGEFRKVKITDAKTFGLKGELILLEHHHHHH	soluble
MKMKKKKRKMFDVFEHVLNQIVGNGVLLLRRIVIDRSKQHKHFHLIMTYKCIFVVAQHTLVDRLESDNNGEQKFQKLCFI	not soluble
ISDTLNIQRKKIILYAPTFRDYNMQSIQLPFTEEQLIHQLKEEYVLFVKLHPAIQNNIDIKYSSDYIKDVSNYALFDLLMAADILITDYSSVPFEFSILNKPILFYTYDLKLYQQKRGLVDNYLSIIPGRACYDSESLINEIQTPFNYSKIKVFSDRWNKYSDGNSSQNLLNFIEN	not soluble
MSLGKGEKFQIEFVSANPTGDLHLGHARGAAIGDSLANIMKMAGFDVSREYYINDAGNQINNLVLSAEARYFEALGLDSEFPEDGYRGADIISLGKDLAAKYGDKYVHTSEEERRSVFRVDALAFETGKLRADLEEFRVSFDEWFSETSLYEENKVLPALERLRENGYIYEQDGATWLRTTDFEDDKDRVLIKSDGSYTYFLPDIAYHLNKLERGFDVLIDIWGADHHGYIPRMRAAIEALGYSPNQLEVEIIQLVHLFEDGVQVKMSKRTGKSVTMRDLIEEVGLDATRYFFAMRSSDTHMNFDMSLAKSTSNDNPVYYVQYAHARISSILRSGKEQGLEVTKDADMSLLQTEAEYDLLKVLGEFADVVAEAATKRAPHRIVRYLNDLASSFHRFYNSNKVLDMDNLEVTKARLALIKTAQITLRNGLTLLGVSAPEKEGHHHHHH	not soluble
MAGDPNSMKRKPAVAGLFYPSRRDELIEQIRMCFLDKRIGPGKLPGPVETKLQNPIGLVSPHAGYIYSGPVAAWGFLEAVKFGEPSVVVIIGPNHTGLGRPVGVWPEGEWETPLGTVPVNERAVEIVLSNSRYAEEDFMSHIREHSIEVQIPFLQFVFGEVSIVPICLMDQSPAVAEDLASALAKLVAEFPGVLIIASTDLNHYEDQRTTLRKDSYIIEAIEGMDPSLLYEYLVREDISMCGYGGVATLLNMDFENVRILKHATSGDVSGDTLEVVGYLSAILFLEHHHHHH	not soluble
MTEYGGGEVYLLDLDSVVDGSALRMISSGGLRGRVLIHSALVDYLYSEAKRGRSAGYAGLAELSRLMDAGVGDVEIVVVEDDARVQPRDEGELKSVLRRYALRVGATLVTSDPVQARAARALGVSVLFTGRSRTGRIRIEE	not soluble
MSLVKKGAALLMVATMALSSAACSNSKTEGKPEVQAKVAPVEKNGDKTVIRFWHAMGGKTQGVLDGLVADYNKSQNKYEIKAEFQGTYEESLTKFRTMSATKEAPALVQSSEITTKYMIDSKKITPIDSWIKKDKYDTSKLEKAITNYYSVDGKMYSMPFNSSTPVLIYNKDAFAKAGLDPEKAPKTYAELQEAAKKLTIKEGGNVKQYGFSMLNYGWFFEELLATQGALYVDNENGRKDAAKKAVFNGKEGQKVFGMLDDLNKAGALGKYGASWDDIRAAFQSGQVAMYLDSSAGVRDLIDASKFNVGVSYIPYPEDSKQNGVVIGGASLWMTNMVSEETQQGAWDFMKYLTKPDVQAKWHTATGYFSINPDAYNEPLVKEQYEKYPQLKVTVDQLQATKQSPATQGALISVFPESRDAVVKALEAMYDGKNSKEALDEAAKATDRAISISARTSQK	not soluble
MGCFFSKRRKADKESRPENEEERPKQYSWDQREKVDPKDYMFSGLKDETVGRLPGTVAGQQFLIQDCENCNIYIFDHSATVTIDDCTNCIIFLGPVKGSVFFRNCRDCKCTLACQQFRVRDCRKLEVFLCCATQPIIESSSNIKFGCFQWYYPELAFQFKDAGLSIFDNTWSNIHDFTPVSGELNWSLLPEDAVVQDYVPIPTTEELKAVRVSTEANRSIVPISRGQRQKSSDESCLVVLFAGDYTIANARKLIDEMVGKGFFLVQTKEVSMKAEDAQRVFREKAPDFLPLLNKGPVIALEFNGDGAVEVCQLIVNEIFNGTKMFVSESKETASGDVDSFYNFADIQMGILEHHHHHH	soluble
MSLMELQGKFLIAMPHLDDYFNRTVVFMCEHNEQGSMGLVINQPTDLSIAELYSKLNFMMKNDRTFGNEMVVAGGPMHTERGFILHKNTLNAFQHTYKVTKELSMTTSADVVETLGSTFAPEKYLVALGCSSWGAGQLEKEIRDNAWLVVSSNDQILFDMPYEDRYAAANQLLGIHPYNFALAQVGHSEGGSHHHHHH	soluble
MAHHHHHHMGVPTMERSHGRRSPDEVRYPHIVLNVLGQSYSSACIEVGSTRVVCAVHHPQQLIDEYRGSRGRVACTVRRSSRAQKHELAFRADVTPEKDLALALEGVVEQAVVLEKIPQLLVEVAVEILAEDGGLWDAIATGVCAALASGGFEMYDTFSACGAALLPDGSIVTDPSATEWNTAKATAVTCAMLNSGNMCFTAQRGSCEPTTALDLVMAALKGTLARKNVISSQLCEQFAF	not soluble
MPLVTRNIEPRHLCRQTLPSVRSELECVTNITLANVIRQLGSLSKYAEDIFGELFTQANTFASRVSSLAERVDRLQVKVTQLDPKEEEVSLQGINTRKAFRSSTIQDQKLFDRNSLPVPVLETYNTCDTPPPLNNLTPYRDDGKEALKFYTDPSYFFDLWKEKMLQDTKDIMKEKRKHRKEKKDNPNRGNVNPRKIKTRKEEWEKMKMGQEFVESKEKLGTSGYPPTLVYQNGSIGCVENVDASSYPPPPQSDSASSPSPSFSEDNLPPPPAEFSYPVDNQRGSGLAGPKRSSVVSPSHPPPAPPLGSPPGPKPGFAPPPAPPPPPPPMIGIPPPPPPVGFGSPGTPPPPSPPSFPPHPDFAAPPPPPPPPAADYPTLPPPPLSQPTGGAPPPPPPPPPPGPPPPPFTGADGQPAIPPPLSDTTKPKSSLPAVSDARSDLLSAIRQGFQLRRVEEQREQEKRDVVGNDVATILSRRIAVEYSDSEDDSSEFDEDDWSD	soluble
MTIEKPKISVAFIALGNFCRSPMAEAIFKHEVEKANLENRFNKIDSFGTSNYHVGESPDHRTVSICKQHGVKINHKGKQIKTKHFDEYDYIIGMDESNINNLKKIQPEGSKAKVCLFGDWNTNDGTVQTIIEDPWYGDIQDFEYNFKQITYFSKQFLKKEL	soluble
MTKSELMVRLAEVFAAKNGTHLLAKDVEYSVKVLVDTMTRSLARGQRIEIRGFGSFDLNHRPARIGRNPKTGERVEVPEKHVPHFKPGKELRERVDLALKENAN	not soluble
PFSFCRRIYLPTDLRSYPSVRNVLIHEQEHTRATHFVDLLIAEVACMLFWFNPFAWALKRDMQRNLEFLADRAVLLRGVSRREYQYELL	not soluble
GMDRTLTHQPQEYAVSVSVGEVKLKGNLVIPNGATGIVLFAHGSGSSRYSPRNRYVAEVLQQAGLATLLIDLLTQEEEEIDLRTRHLRFDIGLLASRLVGATDWLTHNPDTQHLKVGYFGASTGGGAALVAAAERPETVQAVVSRGGRPDLAPSALPHVKAPTLLIVGGYDLPVIAMNEDALEQLQTSKRLVIIPRASHLFEEPGALTAVAQLASEWFMHYLR	soluble
MGSDKIHHHHHHMRNINYFFAGSLLLLSGCQLIPNGDIPADDETNINPTLEVVSPTESDTREQVVEARDLWQRMQEGMHWEKPNEAYVAPFRQKLLANPRHLEQVFSRAEPFLYLIVDELERRGLPLELALLPAIESAFDADAISHASASGLWQLTPPMARYFGLKMNWWYDGRNDVVASTRAAADFLEYLYDRTGNNWHYAIAAYNSGEGRVLSAVRHNEKAGKPTDIWALKLPRETRNYVPNLLALADVVKHADKYGVSLPRIKNEPVVDVVEIGSQIELALAAELAGLSVSELKSLNPGFKQWATAPKGPHRLVVPVSNAPDFVVALAQTPQEQRVQWARYQIKRGDSLSVIARQFGTTPQVLKQVNQMKNNQLIAGKELVVPANGRTNASAQLASATPKQSYKVKSGDSLWKIAQAHGISVNDLKKWNSLGSKAIIRQGQLLTVWPGSKAVANTRSTTYQVKRGDSLSLIAQKFKVKISELMSWNKLSSSALQPGQTLTVMLQ	not soluble
MSETKERLCIYADFPYEFAVCAPRTDCPKREQCLRASAYDGVLARGLQKITVINPLIPTSEQGCKAFADNTPVLFAHGITHLYDELPHHAVQSLKHRLLTYFGKTTYYRIYRKERYITIQEQDYIRDSFVRAGFSSDLIRYDAMVYMYELQSAMVKSD	not soluble
GPGSMTNQSDAIFPNILWAQRAELVLITIPLQDATNVVVEIKEGRVLHFEAEAGGEKYRCDVELFREVVSEESRHAAQPRQIDIQLRKKAPLTESGEEEFAQSRSWLRLTRDKSKNSHIQVDWSRWRDEDEDEDETGGLGMDYNDLMSRMMTQKGLGEDDCMDCGNHTDEDGVGPGADKANHSDSDDYDDLPPLEP	soluble
MINFEATELRLGLPGGNHGGEMAGKNNGKRGFSETVDLKLNLSSTAMDSVSKVDLENMKEKVVKPPAKAQVVGWPPVRSFRKNVMSGQKPTTGDATEGNDKTSGSSGATSSASACATVAYVKVSMDGAPYLRKIDLKLYKTYQDLSNALSKMFSSFTIGNYGPQGMKDFMNESKLIDLLNGSDYVPTYEDKDGDWMLVGDVPWEMFVDSCKRIRIMKGSEAIGLAPRALEKCKNRS	soluble
MDLLVVVPHPDDESFGAGGALLLAKEAGLKTGVLTLTRGEAGRTLGLCPPKELPQVRVEELKRAAAVLQVDYLEVLDYPNALPEGAQGERGPATGRGLADHPEAVEAIRTRLLRLRPRFVLTFPPDGINGHPDHVAASRYAREAAQGLAQVVYLVRPDGPWPVTHRLRLPERVLARKLQAIAQHKTQALSVLKFLEMFPERLWTETFHLPGASGLREGPWW	soluble
MESLGSIALFVLVTETRSFTLAGKRLGISSSGVGKSVGRLEESLGVRLFHRSTRSIALTLEGSIFLDRCRRILSELDAAQLELSNARDLPKGRLRISVPLVFGLVMPVVIQFMRTYPEIELDIDFSDRMVDIIDEGFDVVLRTGEPSDSRLMSKRMGSFQLCIVGSPDYFARHGLPEQPADLIHHACLQHKFPSTGKFEHWPLRREPGSEDFELPQTMVCNTTEVLVEVARAGLGITCLPDFMLASAIRKGELIPILSDYTLHTGSFRLFWASSKHLSVRLRVFIDFMHANLFAPARVGQEGRS	not soluble
MSEVVTDRLRMALEAMAQKDDDAAWEVIDGDDEINQLYLDLEDDCIDLLALQQPVAGDLRLIASSFKIITDLERIGDLAANLAEYTLDADRDMFPEVDVQAIGDRTIEMVTDAMAAYASADVEACYAIAERDDDIDERCRSASQTVIRDLIETEIDAATDDAEIEALMQDVSRLLLTVRDLERVGDHAVNISARTVYMVDNDDELIY	soluble
MITSPTNLNSLPIPPGDFGLPWLGETLNFLNDGDFGKKRQQQFGPIFKTRLFGKNVIFISGALANRFLFTKEQETFQATWPLSTRILLGPNALATQMGEIHRSRRKILYQAFLPRTLDSYLPKMDGIVQGYLEQWGKANEVIWYPQLRRMTFDVAATLFMGEKVSQNPQLFPWFETYIQGLFSLPIPLPNTLFGKSQRARALLLAELEKIIKARQQQPPSEEDALGILLAARDDNNQPLSLPELKDQILLLLFAGHETLTSALSSFCLLLGQHSDIRERVRQEQNKLQLSQELTAETLKKMPYLDQVLQEVLRLIPPVGGGFRELIQDCQFQGFHFPKGWLVSYQISQTHADPDLYPDPEKFDPERFTPDGSATHNPPFAHVPFGGGLRECLGKEFARLEMKLFATRLIQQFDWTLLPGQNLELVVTPSPRPKDNLRVKLHSLM	soluble
